Test results published in paper PMC11286949.
pKd: −log10 of the molar value. Values belong to the substance of their own block, whether it stands above or below them.

Legend:
[1] = molecular target: T1, Arc1p dNdM1 (Saccharomyces cerevisiae) (UniProt P46672); assay: ITC; conditions: FP: 25 mM Tris-HCl pH 7.5, 2 mM MgCl2, 50 mM NaCl (Trbp111) or 150 mM NaCl (Arc1p), room temperature, ITC: 25 mM Tris-HCl pH 7.4, 150 mM NaCl
T1 sequence (P46672 whole entry, looked up): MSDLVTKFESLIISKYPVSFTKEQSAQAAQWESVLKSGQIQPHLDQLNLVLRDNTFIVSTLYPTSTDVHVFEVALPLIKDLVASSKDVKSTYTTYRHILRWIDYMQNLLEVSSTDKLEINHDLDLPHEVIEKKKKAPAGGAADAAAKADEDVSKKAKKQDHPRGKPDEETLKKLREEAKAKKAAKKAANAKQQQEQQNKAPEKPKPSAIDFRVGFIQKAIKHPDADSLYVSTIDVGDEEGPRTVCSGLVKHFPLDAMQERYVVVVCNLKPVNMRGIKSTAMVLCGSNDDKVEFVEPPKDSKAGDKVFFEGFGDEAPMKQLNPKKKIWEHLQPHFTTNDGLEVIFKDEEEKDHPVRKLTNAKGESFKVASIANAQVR

[2] = molecular target: Aquifex aeolicus Trbp111 (tRNA-binding protein, 111 amino acids) (Aquifex aeolicus); assay: crystal structure; unbound (apo) Trbp111, 2.3 Å, space group C222_(1); crystals grew from a mixture with tRNA^Ile, 0.2 M lithium sulfate, 0.1 M Tris-HCl pH 8.5, 25% PEG 3350
[3] = molecular target: T2, Arc1p dN del1-131 (Saccharomyces cerevisiae) (UniProt P46672); assay: ITC; conditions: FP: 25 mM Tris-HCl pH 7.5, 2 mM MgCl2, 50 mM NaCl (Trbp111) or 150 mM NaCl (Arc1p), room temperature, ITC: 25 mM Tris-HCl pH 7.4, 150 mM NaCl
T2 sequence: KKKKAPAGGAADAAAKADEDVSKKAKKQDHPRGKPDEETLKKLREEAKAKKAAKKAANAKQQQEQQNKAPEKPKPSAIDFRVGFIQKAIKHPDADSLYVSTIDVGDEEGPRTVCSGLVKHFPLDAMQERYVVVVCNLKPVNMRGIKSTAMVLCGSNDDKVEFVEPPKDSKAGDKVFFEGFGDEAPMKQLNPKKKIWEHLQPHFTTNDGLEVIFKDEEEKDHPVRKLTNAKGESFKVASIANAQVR

Substance: AGGCUUGUAGCUCAGGUGGUUAGAGCGCACCCCUGAUAAGGGUGAGGGCGGUGGUUCAAGUCCACUCAGGCCUACCA [tRNAIle WT]
pKd [1]: 5.59

stoichiometry N [2]: 2
Substance: Aquifex aeolicus Trbp111 (tRNA-binding protein, 111 amino acids) (natural protein)

Substance: tRNAIle G18C/G19C
pKd [3]: 5.48
